Where no end group is shown, it is not given here. The star is where a group is joined. Biotin = O=C1N[C@H]2[C@H](CS[C@H]2CCCCC(=O)*)N1; TTDS = NCCCOCCOCCOCCCNC(=O)CCC(=O)*

The target of one test is T1, MAGI2-2 (human, UniProt Q86UL8 426-510).
T1 construct: PDZ domain number 2 of human MAGI2; also called MAGI2 PDZ dom 2; source: E. coli, in crude cell lysate; not shown: His, N-terminal, kept
As to the kind of experiment: holdup assay; biotinylated PBM peptide saturating streptavidin resin (biotin resin as reference); tag-PDZ at 4 uM in crude E. coli lysate, 15 min, filtration, free tag-PDZ by capillary electrophoresis; singlicate; BI cut-off 0.20; BI converted into KD with the peptide concentration back-calculated from FP. Conditions: one partner purified.

For another test, the target named is T2, PTPN13-4 (human, UniProt Q12923 1788-1868).
T2 construct: PDZ domain number 4 of human PTPN13; also called PTPN13 PDZ dom 4; fourth PDZ domain of PTPN13; source: E. coli, in crude cell lysate; not shown: His, N-terminal, kept
T2 sequence (looked up): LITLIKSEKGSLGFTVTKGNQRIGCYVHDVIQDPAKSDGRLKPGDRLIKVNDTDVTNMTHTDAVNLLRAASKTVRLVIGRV
Described as above. Conditions: one partner purified.

Another test concerns the target T3, DLG1-2 (human, UniProt Q12959 319-405).
T3 construct: PDZ domain number 2 of human DLG1; also called DLG1 PDZ dom 2; source: E. coli, in crude cell lysate; not shown: His, N-terminal, kept
The description is as above. Conditions: one partner purified.

The target of another test is T4, NHERF2-1 (human, UniProt Q15599 11-90).
T4 construct: PDZ domain number 1 of human NHERF2; also called NHERF2 PDZ dom 1; source: E. coli, in crude cell lysate; not shown: His, N-terminal, kept
T4 sequence (Q15599 11-90): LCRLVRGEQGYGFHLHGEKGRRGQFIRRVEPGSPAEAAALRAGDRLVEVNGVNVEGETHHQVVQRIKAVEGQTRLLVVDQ
The description is as above. Conditions: one partner purified.

The next test deals with T5, NHERF2-2 (human, UniProt Q15599 150-230).
T5 construct: PDZ domain number 2 of human NHERF2; also called NHERF2 PDZ dom 2; source: E. coli, in crude cell lysate; not shown: His, N-terminal, kept
T5 sequence (Q15599 150-230): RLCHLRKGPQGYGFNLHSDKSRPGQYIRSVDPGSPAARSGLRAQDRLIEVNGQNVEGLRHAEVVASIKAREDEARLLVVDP
Described as above. The conditions noted are these: one partner purified.

For another test, the target named is T6, MAGI3-2 (human, UniProt Q5TCQ9 410-492).
T6 construct: PDZ domain number 2 of human MAGI3; also called MAGI3 PDZ dom 2; source: E. coli, in crude cell lysate; not shown: His, N-terminal, kept
T6 sequence (Q5TCQ9 410-492): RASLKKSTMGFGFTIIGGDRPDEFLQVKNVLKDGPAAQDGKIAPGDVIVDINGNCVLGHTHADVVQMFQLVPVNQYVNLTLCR
Described as above. Conditions: one partner purified.

The target in the next test is T7, MAGI1-3 (human, UniProt Q96QZ7 643-721).
T7 construct: PDZ domain number 3 of human MAGI1; also called MAGI1 PDZ dom 3; source: E. coli, in crude cell lysate; not shown: His, N-terminal, kept
T7 sequence (Q96QZ7 643-721): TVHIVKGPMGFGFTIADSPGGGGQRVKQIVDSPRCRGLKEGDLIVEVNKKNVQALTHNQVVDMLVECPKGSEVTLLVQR
Described as above. Conditions: one partner purified.

Another test concerns the target T8, PARD3-3 (human, UniProt Q8TEW0 590-677).
T8 construct: the text says PARD3-1; also called PARD3 PDZ dom 3; source: E. coli, in crude cell lysate; not shown: His, N-terminal, kept
The description is as above. Conditions: one partner purified.

A further test concerns the target T9, MAGI2-3 (human, UniProt Q86UL8 605-683).
T9 construct: PDZ domain number 3 of human MAGI2; also called MAGI2 PDZ dom 3; source: E. coli, in crude cell lysate; not shown: His, N-terminal, kept
The test is described as above. Conditions: one partner purified.

The next test deals with T10, PTPN13-2 (human, UniProt Q12923 1368-1452).
T10 construct: PDZ domain number 2 of human PTPN13; also called PTPN13 PDZ dom 2; source: E. coli, in crude cell lysate; not shown: His, N-terminal, kept
T10 sequence (looked up): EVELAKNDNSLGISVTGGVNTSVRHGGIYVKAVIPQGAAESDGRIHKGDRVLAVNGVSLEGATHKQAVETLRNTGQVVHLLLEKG
Described as above. Conditions: one partner purified.

For test [1], the target named is T11, SCRIB-3, third PDZ domain of SCRIB (human, UniProt Q14160 1004-1093).
T11 sequence (looked up): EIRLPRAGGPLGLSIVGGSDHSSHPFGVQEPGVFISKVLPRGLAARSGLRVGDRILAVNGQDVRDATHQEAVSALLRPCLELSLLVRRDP
As to the kind of experiment: fluorescence polarisation; direct: N-terminally fluorescein-labelled PBM peptide (tracer) with increasing amounts of MBP-PDZ; 384-well plates; triplicate; direct binding model (ProFit). Conditions: both partners purified. (In fluorescence polarisation assays a small probe gives low polarisation when free and higher when bound to something large.)

Test [2] addresses MAGI1-2, second PDZ domain of MAGI1 (human, UniProt Q96QZ7 472-554). Described as above. The conditions noted are these: both partners purified.
The target of test [3] is DLG4-3, third PDZ domain of DLG4 (human, UniProt P78352 313-393). The description is as above. Conditions: both partners purified.
Chain of DLG4-3, third PDZ domain of DLG4 (P78352 313-393): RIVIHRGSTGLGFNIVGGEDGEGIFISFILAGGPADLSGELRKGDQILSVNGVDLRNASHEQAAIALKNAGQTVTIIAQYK
In test [4] the target is T12, PDZRN4-1, first PDZ domain of PDZRN4 (human, UniProt Q6ZMN7 224-314).
T12 sequence (looked up): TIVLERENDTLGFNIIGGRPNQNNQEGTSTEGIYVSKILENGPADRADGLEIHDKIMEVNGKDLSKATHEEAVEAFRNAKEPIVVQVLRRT
Described as above. Conditions: both partners purified.

Test [5] deals with T13, PDZRN3-1, first PDZ domain of PDZRN3 (human, UniProt Q9UPQ7 249-339).
T13 sequence (looked up): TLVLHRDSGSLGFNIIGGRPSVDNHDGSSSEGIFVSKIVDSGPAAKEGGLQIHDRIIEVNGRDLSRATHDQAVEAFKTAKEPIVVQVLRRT
Described as above. The conditions noted are these: both partners purified.

Test [6] deals with T14, NHERF3-1, first PDZ domain of NHERF3 (human, UniProt Q5T2W1 9-90).
T14 sequence (looked up): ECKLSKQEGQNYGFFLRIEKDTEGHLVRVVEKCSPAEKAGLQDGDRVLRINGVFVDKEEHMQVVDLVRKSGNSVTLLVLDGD
The test is described as above. The conditions noted are these: both partners purified.

Test [7] addresses T15, MAGI2-2, second PDZ domain of MAGI2 (human, UniProt Q86UL8 426-510).
T15 construct: not shown: His6, N-terminal, kept; MBP, N-terminal, kept
The description is as above. The conditions noted are these: both partners purified.

The target in another test is T16, SYNJ2BP PDZ domain (human, UniProt P57105 13-100).
T16 sequence (looked up): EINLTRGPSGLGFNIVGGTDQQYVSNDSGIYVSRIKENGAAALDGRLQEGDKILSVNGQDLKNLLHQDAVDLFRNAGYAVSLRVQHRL
The test is described as above. Conditions: both partners purified.

T15 sequence (Q86UL8 426-510): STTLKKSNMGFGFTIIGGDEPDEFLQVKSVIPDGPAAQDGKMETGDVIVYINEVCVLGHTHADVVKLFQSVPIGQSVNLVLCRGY
T1 sequence (Q86UL8 426-510): as above
Chain of MAGI1-2, second PDZ domain of MAGI1 (Q96QZ7 472-554): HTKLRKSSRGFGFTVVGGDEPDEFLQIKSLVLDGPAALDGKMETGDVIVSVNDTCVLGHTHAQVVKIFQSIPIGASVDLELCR
T9 sequence (Q86UL8 605-683): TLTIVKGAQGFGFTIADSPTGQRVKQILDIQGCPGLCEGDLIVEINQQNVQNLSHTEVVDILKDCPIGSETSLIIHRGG
T8 sequence (Q8TEW0 590-677): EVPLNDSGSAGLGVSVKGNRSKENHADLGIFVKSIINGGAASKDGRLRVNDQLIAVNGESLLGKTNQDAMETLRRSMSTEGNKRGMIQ

B1: PTEN_13 (peptide, UniProt P60484 391-403, looked up)
peptide: {Biotin-TTDS}-PFDEDQHTQITKV
notes: also called 13-mer PTEN peptide; extended wild-type peptide; source: synthetic peptide, bought: JPT Innovative Peptide Solutions (70%-80% purity)
For B1, the equilibrium dissociation constant (Kd) is 149 µM with MAGI2-2; 36 µM with PTPN13-4; 81 µM with DLG1-2; 134 µM with NHERF2-1; 125 µM with NHERF2-2; 21 µM with MAGI3-2. Also, the dissociation constant Kd in the test with MAGI1-3 is 10 µM; in the test with PARD3-3 it was 96 µM; with MAGI2-3, 30 µM; with PTPN13-2, 16 µM.

B2: f16E6, fluorescein-labelled HPV16 E6 PBM peptide (peptide)
peptide: fluorescein-RTRRETQL
notes: source: synthetic peptide
On to B2, for which the dissociation constant (Kd) in test [1] was 1.47 µM; in [2] it was 0.5 µM; in [3], 7.27 µM; in test [4], 2.93 µM; in test [5] it was 1.08 µM; in test [6], 2.34 µM. Moreover, the Kd was determined as 2.77 µM in test [7] and 2.28 µM with SYNJ2BP PDZ domain.

As usually defined, the Kd is the equilibrium constant for the complex coming apart.
